Patent US20230416330A1, “Optimized GIP Peptide Analogues” (Antag Therapeutics ApS, priority 2019, published 2023)
Starred links: 1 amine or outer side, 2 acyl side, 3 side chain; linkers in the order of their positions; H or OH if unused. Non-standard residues stand in square brackets, D forms with d. Groups on a side chain read outwards from the residue. No end group written: not given here. *: point of attachment. C18 diacid = O=C(O)CCCCCCCCCCCCCCCCC(=O)*; C16 diacid = O=C(O)CCCCCCCCCCCCCCC(=O)*; γGlu = O=C(O)[C@H](CCC(=O)[*:2])N[*:1]; Glutaryl = O=C(CCCC(=O)[*:2])[*:1]; Nle = CCCC[C@H](N)C(=O)O; AEEA = NCCOCCOCC(=O)O; Aib = CC(C)(N)C(=O)O

B1: AT666 (peptide)
peptide: EGTFISDYSI[Aib]LDKIK(C16 diacid)QQDFVEWLLAQKPSSGAPPPS-OH
B2: AT674 (peptide)
peptide: EGTFISEYSI[Aib][Nle]EKIK(C16 diacid)QQEFVEWLLAQKPSSGAPPPS-OH
modifications: N-terminus assumed
SMILES: CCCC[C@H](NC(=O)C(C)(C)NC(=O)[C@@H](NC(=O)[C@H](CO)NC(=O)[C@H](Cc1ccc(O)cc1)NC(=O)[C@H](CCC(=O)O)NC(=O)[C@H](CO)NC(=O)[C@@H](NC(=O)[C@H](Cc1ccccc1)NC(=O)[C@@H](NC(=O)CNC(=O)[C@@H](N)CCC(=O)O)[C@@H](C)O)[C@@H](C)CC)[C@@H](C)CC)C(=O)N[C@@H](CCC(=O)O)C(=O)N[C@@H](CCCCN)C(=O)N[C@H](C(=O)N[C@@H](CCCCNC(=O)CCCCCCCCCCCCCCC(=O)O)C(=O)N[C@@H](CCC(N)=O)C(=O)N[C@@H](CCC(N)=O)C(=O)N[C@@H](CCC(=O)O)C(=O)N[C@@H](Cc1ccccc1)C(=O)N[C@H](C(=O)N[C@@H](CCC(=O)O)C(=O)N[C@@H](Cc1c[nH]c2ccccc12)C(=O)N[C@@H](CC(C)C)C(=O)N[C@@H](CC(C)C)C(=O)N[C@@H](C)C(=O)N[C@@H](CCC(N)=O)C(=O)N[C@@H](CCCCN)C(=O)N1CCC[C@H]1C(=O)N[C@@H](CO)C(=O)N[C@@H](CO)C(=O)NCC(=O)N[C@@H](C)C(=O)N1CCC[C@H]1C(=O)N1CCC[C@H]1C(=O)N1CCC[C@H]1C(=O)N[C@@H](CO)C(=O)O)C(C)C)[C@@H](C)CC
B3: AT677 (peptide)
peptide: Glutaryl-GTFISDYSIAMDKIK(C16 diacid)QQDFVNWLLAQKPSSGAPPPS-OH
SMILES: CC[C@H](C)[C@H](NC(=O)[C@H](CO)NC(=O)[C@H](Cc1ccc(O)cc1)NC(=O)[C@H](CC(=O)O)NC(=O)[C@H](CO)NC(=O)[C@@H](NC(=O)[C@H](Cc1ccccc1)NC(=O)[C@@H](NC(=O)CNC(=O)CCCC(=O)O)[C@@H](C)O)[C@@H](C)CC)C(=O)N[C@@H](C)C(=O)N[C@@H](CCSC)C(=O)N[C@@H](CC(=O)O)C(=O)N[C@@H](CCCCN)C(=O)N[C@H](C(=O)N[C@@H](CCCCNC(=O)CCCCCCCCCCCCCCC(=O)O)C(=O)N[C@@H](CCC(N)=O)C(=O)N[C@@H](CCC(N)=O)C(=O)N[C@@H](CC(=O)O)C(=O)N[C@@H](Cc1ccccc1)C(=O)N[C@H](C(=O)N[C@@H](CC(N)=O)C(=O)N[C@@H](Cc1c[nH]c2ccccc12)C(=O)N[C@@H](CC(C)C)C(=O)N[C@@H](CC(C)C)C(=O)N[C@@H](C)C(=O)N[C@@H](CCC(N)=O)C(=O)N[C@@H](CCCCN)C(=O)N1CCC[C@H]1C(=O)N[C@@H](CO)C(=O)N[C@@H](CO)C(=O)NCC(=O)N[C@@H](C)C(=O)N1CCC[C@H]1C(=O)N1CCC[C@H]1C(=O)N1CCC[C@H]1C(=O)N[C@@H](CO)C(=O)O)C(C)C)[C@@H](C)CC
B4: AT668 (peptide)
peptide: EGTFISDYSIALDKIK(C16 diacid)QQDFVEWLLAQKPSSGAPPPS-OH
modifications: N-terminus assumed
SMILES: CC[C@H](C)[C@H](NC(=O)[C@H](CO)NC(=O)[C@H](Cc1ccc(O)cc1)NC(=O)[C@H](CC(=O)O)NC(=O)[C@H](CO)NC(=O)[C@@H](NC(=O)[C@H](Cc1ccccc1)NC(=O)[C@@H](NC(=O)CNC(=O)[C@@H](N)CCC(=O)O)[C@@H](C)O)[C@@H](C)CC)C(=O)N[C@@H](C)C(=O)N[C@@H](CC(C)C)C(=O)N[C@@H](CC(=O)O)C(=O)N[C@@H](CCCCN)C(=O)N[C@H](C(=O)N[C@@H](CCCCNC(=O)CCCCCCCCCCCCCCC(=O)O)C(=O)N[C@@H](CCC(N)=O)C(=O)N[C@@H](CCC(N)=O)C(=O)N[C@@H](CC(=O)O)C(=O)N[C@@H](Cc1ccccc1)C(=O)N[C@H](C(=O)N[C@@H](CCC(=O)O)C(=O)N[C@@H](Cc1c[nH]c2ccccc12)C(=O)N[C@@H](CC(C)C)C(=O)N[C@@H](CC(C)C)C(=O)N[C@@H](C)C(=O)N[C@@H](CCC(N)=O)C(=O)N[C@@H](CCCCN)C(=O)N1CCC[C@H]1C(=O)N[C@@H](CO)C(=O)N[C@@H](CO)C(=O)NCC(=O)N[C@@H](C)C(=O)N1CCC[C@H]1C(=O)N1CCC[C@H]1C(=O)N1CCC[C@H]1C(=O)N[C@@H](CO)C(=O)O)C(C)C)[C@@H](C)CC
B5: AT665 (peptide)
peptide: EGTFISDYSI[Aib]MDKIK(C16 diacid)QQDFVEWLLAQKPSSGAPPPS-OH
B6: AT682 (peptide)
peptide: EGTFISDYSIALDKIK([AEEA-AEEA-γGlu-C18 diacid])QQDFVEWLLAQKPSSGAPPPS-OH
modifications: N-terminus assumed
SMILES: CC[C@H](C)[C@H](NC(=O)[C@H](CO)NC(=O)[C@H](Cc1ccc(O)cc1)NC(=O)[C@H](CC(=O)O)NC(=O)[C@H](CO)NC(=O)[C@@H](NC(=O)[C@H](Cc1ccccc1)NC(=O)[C@@H](NC(=O)CNC(=O)[C@@H](N)CCC(=O)O)[C@@H](C)O)[C@@H](C)CC)C(=O)N[C@@H](C)C(=O)N[C@@H](CC(C)C)C(=O)N[C@@H](CC(=O)O)C(=O)N[C@@H](CCCCN)C(=O)N[C@H](C(=O)N[C@@H](CCCCNC(=O)COCCOCCNC(=O)COCCOCCNC(=O)CC[C@H](NC(=O)CCCCCCCCCCCCCCCCC(=O)O)C(=O)O)C(=O)N[C@@H](CCC(N)=O)C(=O)N[C@@H](CCC(N)=O)C(=O)N[C@@H](CC(=O)O)C(=O)N[C@@H](Cc1ccccc1)C(=O)N[C@H](C(=O)N[C@@H](CCC(=O)O)C(=O)N[C@@H](Cc1c[nH]c2ccccc12)C(=O)N[C@@H](CC(C)C)C(=O)N[C@@H](CC(C)C)C(=O)N[C@@H](C)C(=O)N[C@@H](CCC(N)=O)C(=O)N[C@@H](CCCCN)C(=O)N1CCC[C@H]1C(=O)N[C@@H](CO)C(=O)N[C@@H](CO)C(=O)NCC(=O)N[C@@H](C)C(=O)N1CCC[C@H]1C(=O)N1CCC[C@H]1C(=O)N1CCC[C@H]1C(=O)N[C@@H](CO)C(=O)O)C(C)C)[C@@H](C)CC
B7: AT623 (peptide)
peptide: EGTFISDYSIAMDKIK(C16 diacid)QQDFVEWLLAQAPSSGAPPPS-OH
modifications: N-terminus assumed
SMILES: CC[C@H](C)[C@H](NC(=O)[C@H](CO)NC(=O)[C@H](Cc1ccc(O)cc1)NC(=O)[C@H](CC(=O)O)NC(=O)[C@H](CO)NC(=O)[C@@H](NC(=O)[C@H](Cc1ccccc1)NC(=O)[C@@H](NC(=O)CNC(=O)[C@@H](N)CCC(=O)O)[C@@H](C)O)[C@@H](C)CC)C(=O)N[C@@H](C)C(=O)N[C@@H](CCSC)C(=O)N[C@@H](CC(=O)O)C(=O)N[C@@H](CCCCN)C(=O)N[C@H](C(=O)N[C@@H](CCCCNC(=O)CCCCCCCCCCCCCCC(=O)O)C(=O)N[C@@H](CCC(N)=O)C(=O)N[C@@H](CCC(N)=O)C(=O)N[C@@H](CC(=O)O)C(=O)N[C@@H](Cc1ccccc1)C(=O)N[C@H](C(=O)N[C@@H](CCC(=O)O)C(=O)N[C@@H](Cc1c[nH]c2ccccc12)C(=O)N[C@@H](CC(C)C)C(=O)N[C@@H](CC(C)C)C(=O)N[C@@H](C)C(=O)N[C@@H](CCC(N)=O)C(=O)N[C@@H](C)C(=O)N1CCC[C@H]1C(=O)N[C@@H](CO)C(=O)N[C@@H](CO)C(=O)NCC(=O)N[C@@H](C)C(=O)N1CCC[C@H]1C(=O)N1CCC[C@H]1C(=O)N1CCC[C@H]1C(=O)N[C@@H](CO)C(=O)O)C(C)C)[C@@H](C)CC
B8: AT673 (peptide)
peptide: EGTFISEYSI[Aib]LEKIK(C16 diacid)QQEFVEWLLAQKPSSGAPPPS-OH
modifications: N-terminus assumed
SMILES: CC[C@H](C)[C@H](NC(=O)[C@H](CCCCN)NC(=O)[C@H](CCC(=O)O)NC(=O)[C@H](CC(C)C)NC(=O)C(C)(C)NC(=O)[C@@H](NC(=O)[C@H](CO)NC(=O)[C@H](Cc1ccc(O)cc1)NC(=O)[C@H](CCC(=O)O)NC(=O)[C@H](CO)NC(=O)[C@@H](NC(=O)[C@H](Cc1ccccc1)NC(=O)[C@@H](NC(=O)CNC(=O)[C@@H](N)CCC(=O)O)[C@@H](C)O)[C@@H](C)CC)[C@@H](C)CC)C(=O)N[C@@H](CCCCNC(=O)CCCCCCCCCCCCCCC(=O)O)C(=O)N[C@@H](CCC(N)=O)C(=O)N[C@@H](CCC(N)=O)C(=O)N[C@@H](CCC(=O)O)C(=O)N[C@@H](Cc1ccccc1)C(=O)N[C@H](C(=O)N[C@@H](CCC(=O)O)C(=O)N[C@@H](Cc1c[nH]c2ccccc12)C(=O)N[C@@H](CC(C)C)C(=O)N[C@@H](CC(C)C)C(=O)N[C@@H](C)C(=O)N[C@@H](CCC(N)=O)C(=O)N[C@@H](CCCCN)C(=O)N1CCC[C@H]1C(=O)N[C@@H](CO)C(=O)N[C@@H](CO)C(=O)NCC(=O)N[C@@H](C)C(=O)N1CCC[C@H]1C(=O)N1CCC[C@H]1C(=O)N1CCC[C@H]1C(=O)N[C@@H](CO)C(=O)O)C(C)C
B9: AT667 (peptide)
peptide: EGTFISDYSI[Aib][Nle]DKIK(C16 diacid)QQDFVEWLLAQKPSSGAPPPS-OH

Target: T1, human GIP receptor (human, UniProt P48546 22-466)
T1 sequence (looked up): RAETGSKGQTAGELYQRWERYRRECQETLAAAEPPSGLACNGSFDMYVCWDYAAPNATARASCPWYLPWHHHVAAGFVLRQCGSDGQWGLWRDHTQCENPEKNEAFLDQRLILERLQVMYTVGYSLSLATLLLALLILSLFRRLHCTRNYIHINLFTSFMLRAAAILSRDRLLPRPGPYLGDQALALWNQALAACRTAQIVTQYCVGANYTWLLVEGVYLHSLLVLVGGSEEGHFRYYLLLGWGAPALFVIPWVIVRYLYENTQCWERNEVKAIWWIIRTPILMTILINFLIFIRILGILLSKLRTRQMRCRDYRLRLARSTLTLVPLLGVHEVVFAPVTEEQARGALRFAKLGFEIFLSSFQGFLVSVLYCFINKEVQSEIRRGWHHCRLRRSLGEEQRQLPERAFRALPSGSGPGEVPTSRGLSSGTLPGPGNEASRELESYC
Experiment: cell-based or functional assay

Row | Binder | cAMP antagonism % inhib (CisBio assay) [%] | cAMP antagonism nM (IC50, CisBio assay) [nM] | cAMP antagonism pIC50 (CisBio assay)
1 | B1 | 89 | 0.266 | 9.6
2 | B2 | 93 | 0.447 | 9.4
3 | B3 | 93 | 0.447 | 9.4
4 | B4 | 92 | 0.944 | 9
5 | B5 | 88 | 0.15 | 9.8
6 | B6 | 89 | 13.6 | 7.9
7 | B7 | 98 | 3.16 | 8.5
8 | B8 | 94 | 0.136 | 9.9
9 | B9 | 86 | 0.736 | 9.1
